Here are results for 3 molecules from patent publication EP4806919A1 (Cells & Genes Biotech (Shanghai) Co., Ltd, dated 2026).

“And” between values parts separate entries of the source, which are not always exact repeats. Equal values may be shown once.

Assay [1] deals with BCMA on cell surface of BCMA-positive cells (NCI-H929; RPMI-8226) (UniProt Q02223). Kind of assay: flow cytometry on NCI-H929 cells, control without nanobody.
The target of assay [2] is Cyno BCMA-His antigen (cyno (monkey)). Kind of assay: phage ELISA, antigen coated 100 ng/well, Anti-M13 HRP. Background: An ELISA detects its analyte on a solid surface through an enzyme-linked reagent.
Assay [3] deals with Human BCMA-His recombinant protein (human) (UniProt Q02223). Described as above.
Assay [4] concerns the target BCMA on cell surface of BCMA-positive cells (NCI-H929; RPMI-8226) (UniProt Q02223). Kind of assay: flow cytometry on NCI-H929 cells, antibody 10 ug/ml, PE anti-human Fc. For orientation: In flow cytometry, cells or beads pass a laser one at a time.
Assay [5] concerns the target T1, Human BCMA-His recombinant protein (human, UniProt Q02223 1-54).
T1 construct: Supplied reagent (Chengdu Shengshi Junlian Biotechnology, Cat# BCA-H522y); also called Cat# BCA-H522y; not shown: His tag
T1 sequence (looked up): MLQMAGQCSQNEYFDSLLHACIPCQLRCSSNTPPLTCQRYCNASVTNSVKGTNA
Nature of the assay: ELISA, Human-BCMA-His coated 200 ng/well.

The target in assay [6] is BCMA on cell surface of BCMA-positive cells (NCI-H929; RPMI-8226) (UniProt Q02223). Kind of assay: flow cytometry on NCI-H929 cells, antibody 10 ug/mL.
For assay [7], the target named is T1, Human BCMA-His recombinant protein. Kind of assay: ELISA, Human BCMA His coated 200 ng/well, anti-human Fc HRP.

Cyno BCMA-His antigen (cyno (monkey)), sequence (chain, as listed by the source): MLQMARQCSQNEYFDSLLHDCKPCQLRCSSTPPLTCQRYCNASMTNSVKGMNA

In turn, hIgG Fc-PE (antibody) showed an NCI-H929 Positive Rate% in assay [1] of 0.04%.

B1: BC-HC-15 (positive phage clone, VHH displayed on phage) (VHH)
VHH: EVQLVQSGGGSVQAGGSLRLSCAASGGDISSTFMGWFRQAPGKEREGVAAIYTGDGTTDYADSVKGRFTIAQDNAKNTVYLEMSRLKPEDTALYYCATGLDGSGSVFSPRSFRYWGQGTQVTVSS
In assay [2], B1 gave an OD (phage ELISA, monkey) of 1.79 OD450. Further, the OD (phage ELISA, human) in assay [3] was found to be 2.11 OD450.

B2: BC-HC-15 nanobody, recombinant VHH-hIgG1Fc antibody (Fc fusion)
chain: B1 VHH
notes: also called VHH-hFC; not shown: human IgG1 Fc (hIgG1Fc) from the pVHH-hIgG1Fc expression plasmid
In turn, B2 gave an NCI-H929 Positive Rate% in assay [4] of 99.9%. Further, the 50% effective concentration (EC50) – broadly, the concentration needed to bring the measured effect to its halfway point – is below 10 nM in assay [5]; 0.605 µg/mL and 7.57 nM in assay [7]. This molecule also displayed a positive binding rate in assay [6] above 95%.
